pEC50: −log10 of the molar value.
How the values were obtained:
[1] = target: mouse PRLR construct with an HA tag on HEK293/mPRLR cells (mouse) (UniProt Q08501); assay: FACS on HEK293/mPRLR cells
[2] = target: human prolactin (PRL) (human) (UniProt P01236); assay: ELISA: dimeric PRLR (3.38 pM to 200 nM) on plate-coated human PRL (1 µg/mL), HRP anti-Fc-gamma detection
[3] = target: human prolactin receptor (PRLR) on cells (human) (UniProt P16471); assay: cell-based or functional assay
human prolactin receptor (PRLR) on cells (human), sequence (P16471 25-622 limits assumed): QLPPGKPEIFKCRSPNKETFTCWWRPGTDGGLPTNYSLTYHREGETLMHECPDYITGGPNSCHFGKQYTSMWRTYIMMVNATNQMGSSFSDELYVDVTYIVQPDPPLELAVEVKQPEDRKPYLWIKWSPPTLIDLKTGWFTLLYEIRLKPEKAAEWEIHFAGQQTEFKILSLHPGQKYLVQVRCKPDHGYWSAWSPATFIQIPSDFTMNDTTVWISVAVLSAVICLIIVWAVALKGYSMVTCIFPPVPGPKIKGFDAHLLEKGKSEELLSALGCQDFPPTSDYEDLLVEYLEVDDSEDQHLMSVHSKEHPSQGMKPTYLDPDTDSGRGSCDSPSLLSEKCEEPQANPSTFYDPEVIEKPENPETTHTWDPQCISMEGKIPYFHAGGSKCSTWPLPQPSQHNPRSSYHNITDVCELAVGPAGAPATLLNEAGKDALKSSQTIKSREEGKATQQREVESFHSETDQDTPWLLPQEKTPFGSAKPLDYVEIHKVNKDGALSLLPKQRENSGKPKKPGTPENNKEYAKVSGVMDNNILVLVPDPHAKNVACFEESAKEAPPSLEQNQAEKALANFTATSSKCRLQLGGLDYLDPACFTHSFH

human prolactin (PRL) (human), sequence (P01236 29-227 limits assumed): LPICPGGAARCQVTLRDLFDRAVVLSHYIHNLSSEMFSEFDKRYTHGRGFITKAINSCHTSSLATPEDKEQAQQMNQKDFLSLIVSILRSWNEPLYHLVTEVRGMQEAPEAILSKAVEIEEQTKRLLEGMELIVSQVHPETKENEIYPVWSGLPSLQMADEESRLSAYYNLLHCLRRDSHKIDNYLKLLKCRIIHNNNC
mouse PRLR construct with an HA tag on HEK293/mPRLR cells (mouse), sequence (Q08501 20-608): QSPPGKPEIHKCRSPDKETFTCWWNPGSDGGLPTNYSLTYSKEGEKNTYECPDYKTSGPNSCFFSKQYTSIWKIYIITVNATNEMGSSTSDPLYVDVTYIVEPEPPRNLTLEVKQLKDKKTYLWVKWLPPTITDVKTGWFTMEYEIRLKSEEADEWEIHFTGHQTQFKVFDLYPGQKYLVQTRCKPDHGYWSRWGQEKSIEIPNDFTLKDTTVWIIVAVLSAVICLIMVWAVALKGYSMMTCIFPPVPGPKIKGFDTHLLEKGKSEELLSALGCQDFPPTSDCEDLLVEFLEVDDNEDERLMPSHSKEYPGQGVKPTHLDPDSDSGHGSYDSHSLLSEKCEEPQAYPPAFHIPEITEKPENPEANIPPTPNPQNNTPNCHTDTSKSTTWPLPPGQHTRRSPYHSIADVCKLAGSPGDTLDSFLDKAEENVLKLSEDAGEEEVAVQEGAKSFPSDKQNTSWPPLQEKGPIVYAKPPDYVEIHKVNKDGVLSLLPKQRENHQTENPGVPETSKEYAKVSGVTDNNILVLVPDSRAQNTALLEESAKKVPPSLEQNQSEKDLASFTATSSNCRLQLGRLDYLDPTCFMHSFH

## Isotype Ctrl I (antibody)
[1]
  FACS Cell Binding (Fold Above Background): 1 fold

## dimeric form of cynomolgus monkey (Macaca fascicularis) PRLR (Example 12 ELISA) (Fc fusion)
[2]
  pEC50: 8.24

## human prolactin (PRL) (from UniProt P01236 29-227) (ligand)
[3]
  EC50, STAT5-luciferase reporter in HEK293/PRLR/STAT5-Luc cells: 2.1 nM
